A short description of data set [1]: HPTLC / Western blot reactivity with chemically de-N-acylated GD3. In kind it is binding. The following applies: mAbs 5 μg/ml. Here is the method: De-N-acyl GM3 and GD3 (Calbiochem) were prepared by suspending 1 mg of ganglioside in 2 ml of 2.5 M tetrabutylammonium hydroxide and 3 ml of butanol then heating the mixture to >100 degrees C. for 4 hours. After cooling the mixture to ambient temperature, the pH was adjusted to about 7 by adding 2 M HCl and the butanol removed by evaporation under a stream of N2. The remaining aqueous layer was dialyzed (1K cut-off dialysis tubing) against PBS buffer and used without further modification as an antigen for ELISA.
Lipids in the extract and in chemically de-N-acylated GD3 were analyzed by separation on high performance thin layer chromatography (HPTLC) and Western blot. Samples of the ganglioside extract, the ganglioside extract that had been treated with sodium borohydride (1 mg/100 μl at ambient temperature for 2 h) to remove the trichloroacetyl protecting group, and chemically de-N-acylated GD3 were spotted onto an aluminum-backed silica gel 60 HPTLC plate (Merck) and the plate developed in chloroform/methanol/0.02% CaCl2 (50:40:10). Plates used for Western blot were dried and dipped in a solution of 0.4% polyisobutylmethacrylate in hexame/chloroform (21:8) for 1 min. The plates were blocked with 1% bovine serum albumin (BSA) in PBS buffer containing 0.1% sodium azide. MAbs (5 μg/ml) in the same blocking buffer were incubated with the plates at 4° C. overnight. […]

Data set [2] in a line: HPTLC / Western blot reactivity with gangliosides extracted from SK-MEL-28 cells grown with N-trichloroacetyl mannosamine. The class given is binding, human. Particulars: mAbs 5 μg/ml; lanes 2 and 5. As for the experimental part: SK-Mel-28 cells were grown on square 245 mm×245 mm bioassay dish (Corning) until near confluent. Growth medium (RPMI supplemented with 5 mM glutamine, 1 mM sodium pyruvate, 0.1 mM non-essential amino acids, 10% fetal bovine serum, and antibiotics) was replaced with growth medium containing trichloroacetyl mannosamine (5 mM) for 24 hours, after which cells were washed three times with PBS and lysed by hypotonic shock in distilled water (1 hour at 4° C.). This was followed by 3 cycles of freeze/thawing using ethanol on dry ice/37° C. water bath. The crude membrane fraction was pelleted by centrifugation at 4500 g for 20 minutes at 4° C. The pellet was lyophilized and the lipids extracted by stepwise washing with methanol/chloroform (1:2, 1:1, 2:1 by volume) for 30 minutes (Geilen et al 1992, Arch. Biochem. Biophys. 296, 108-114). The organic phase was dried under a steady stream of oxygen-free nitrogen gas and resuspended in 200 μl of chloroform/methanol/0.02% CaCl2 (50:40:10).
Lipids in the extract and in chemically de-N-acylated GD3 were analyzed by separation on high performance thin layer chromatography (HPTLC) and Western blot. […]

The next data set relates to human melanomas. Briefly: Immunostaining of frozen sections of human melanomas. The following applies: frozen unfixed sections, 400× magnification. As for the experimental part:
To determine whether there is a difference in expression of SEAM 3-reactive antigen between normal melanocytes and melanoma tumor cells, immuno-staining of thin sections of each type of tissue were performed. In addition to SEAM 3, controls included the secondary antibody alone and R24, which binds to the ganglioside GD3 that is expressed in normal melanocytes and is overexpressed in some melanomas (Dippold et al. Proc Natl Acad Sci USA, 1980. 77(10): 6114-8.; Graus, et al., Brain Res, 1984. 324(1): 190-4; Houghton et al. Proc Natl Acad Sci USA, 1985. 82(4):1242-6; Panneerselvam et al. J Immunol, 1986. 136(7): 2534-41; Real et al. Cancer Res, 1985. 45(9): 4401-11; Vadhan-Raj et al. J Clin Oncol, 1988. 6(10): 1636-48; Welt t al. Clin Immunol Immunopathol, 1987. 45(2): 214-29).
The tissue sections were made from frozen samples of normal skin (HuSkinTb111 in FIG. 39) and two human melanomas (HuMel1151 and HuMel4034). To prevent the possibility of blocking de-N-acetyl antigen or extracting a lipid containing the antigen, the sections were prepared from frozen tissue and were dried onto the slides but not fixed with aldehydes or organic solvents (Chammas et al. Cancer Res, 1999. 59(6): 1337-46). […] Bound antibody was then detected using the DAKO LSAB kit following the manufacturer's directions (Thermo Fisher Scientific, Waltham, Mass.). […]

A further data set relates to CHP-134 neuroblastoma. Particulars: approximately proportional to level of antigen on cell surface.

B1: SEAM 3: murine anti-N-Pr NmB polysaccharide monoclonal antibody (IgG2b), ATCC Deposit No. HB-12170 (antibody, V domains shown)
VH: EVKLQESGGGLVQPGDSLSLSCAASGFTFTPYYMGWVRQPPGKALEWLGYIRNKANGYTTEYSASVKGRFTISRDNSQSILYLQMNALRAEDSATYYCARYARGTVDSWGQGTTLTVS
VL: DIVMTQSPLTLSVTIGQPASISCKSSQSLLHSNGKTYLNWLLQRPGQSPKLLIYLVSKLESGVPDRFSGSGSGTDFTLKISRVEAEDLGLYYCLQIIHFPHTFGAGTKLELKRA
modifications: mouse
Turning to B1, in data set [1], the “reactivity with de-N-acyl GD3 / de-N-acyl gangliosides produced by alkali treatment” value is on record as “does not react”. The “reactivity with SK-MEL-28 lipid extract treated with NaBH4 (protecting group removed)” value in data set [2] is “reacts with a different slower moving de-N-acetyl ganglioside derivative”. In addition, in the data set with human melanomas, the “immunostaining of two human melanomas” value was “staining is weaker but nearly all of the melanoma cells are stained”. The cytotoxic effect entry in the data set on CHP-134 neuroblastoma was “cytotoxic effect of SEAM 3 was observed”.

For the origin of these results see patent US9872921B2, “DE-N-acetyl sialic acid antigens, antibodies thereto, and methods of use in cancer therapy” (priority 2004, dated 2018).
